# Data reported in PMC3182529.
# Target: 14-3-3ζ (UniProt P63104)
# Assay: fluorescence polarisation
# Chain of 14-3-3ζ (P63104 whole entry): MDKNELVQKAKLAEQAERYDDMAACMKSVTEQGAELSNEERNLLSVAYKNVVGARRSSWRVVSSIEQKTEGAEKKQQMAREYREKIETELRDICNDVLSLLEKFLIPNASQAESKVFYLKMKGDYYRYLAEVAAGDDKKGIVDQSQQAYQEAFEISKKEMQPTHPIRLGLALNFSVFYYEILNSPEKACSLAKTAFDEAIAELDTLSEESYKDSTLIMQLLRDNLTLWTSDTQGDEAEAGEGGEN
row,Substance,Kd
1,H3S28phP30A (25–38) (from UniProt P68431 26-39) (peptide),162 µM
2,H3K27acS28ph (25–38) (from UniProt P68431 26-39) (peptide),34.9 µM
3,H3S28ph (25–38) (from UniProt P68431 26-39) (peptide),18.7 µM
